Key:
human insulin receptor = human insulin receptor (Homo sapiens, UniProt P06213); assay: Insulin receptor binding, SPA microtiterplate antibody capture assay; conditions: purified recombinant human insulin receptor - exon 11; A14 Tyr[125I]-human insulin tracer; 16 hours incubation
Method: SPA-PVT antibody-binding beads, anti-mouse reagent (Amersham Biosciences, Cat No. PRNQ0017) were mixed with 25 ml of binding buffer (100 mM HEPES pH 7.8; 100 mM sodium chloride, 10 mM MgSO4, 0.025% Tween-20). […] A total of 100 μl was then added and a dilution series is made from appropriate samples. To the dilution series was then added 100 μl of reagent mix and the samples were incubated for 16 hours while gently shaken. The phases were the then separated by centrifugation for 1 min and the plates counted in a Topcounter. The binding data were fitted using the nonlinear regression algorithm in the GraphPad Prism 2.01 (GraphPad Software, San Diego, Calif.).

[1] = Hydrophobicity (hydrophobic index) relative to human insulin by isocratic RP-HPLC; type: physicochemical; conditions: LiChrosorb RP18 column, isocratic elution at 40° C., sodium phosphate buffer pH 7.3/acetonitrile
Method: The elution was monitored by following the UV absorption of the eluate at 214 nm. Void time, t0, was found by injecting 0.1 mM sodium nitrate.

Sequence of human insulin receptor (P06213 28-746 isoform P06213-2 limits assumed): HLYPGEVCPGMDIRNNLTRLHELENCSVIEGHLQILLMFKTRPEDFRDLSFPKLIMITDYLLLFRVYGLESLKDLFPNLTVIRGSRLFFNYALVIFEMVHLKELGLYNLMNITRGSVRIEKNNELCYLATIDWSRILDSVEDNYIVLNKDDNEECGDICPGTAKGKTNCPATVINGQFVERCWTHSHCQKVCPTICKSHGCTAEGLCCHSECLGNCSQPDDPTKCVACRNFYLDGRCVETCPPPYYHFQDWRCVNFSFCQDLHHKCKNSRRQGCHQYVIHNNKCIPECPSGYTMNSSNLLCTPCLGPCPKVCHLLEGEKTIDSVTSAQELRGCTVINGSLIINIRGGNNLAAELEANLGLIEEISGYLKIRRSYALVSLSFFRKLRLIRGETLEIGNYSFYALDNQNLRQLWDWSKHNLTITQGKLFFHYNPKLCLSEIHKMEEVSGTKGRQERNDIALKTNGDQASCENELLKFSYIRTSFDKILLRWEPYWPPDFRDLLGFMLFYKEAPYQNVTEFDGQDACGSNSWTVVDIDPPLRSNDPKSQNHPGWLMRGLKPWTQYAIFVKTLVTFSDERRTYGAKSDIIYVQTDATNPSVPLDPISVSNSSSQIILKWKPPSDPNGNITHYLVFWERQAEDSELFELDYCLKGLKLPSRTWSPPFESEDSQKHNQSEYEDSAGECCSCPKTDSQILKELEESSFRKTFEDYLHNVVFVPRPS
Sequence of human insulin receptor (P06213 763-1382 partner limits assumed): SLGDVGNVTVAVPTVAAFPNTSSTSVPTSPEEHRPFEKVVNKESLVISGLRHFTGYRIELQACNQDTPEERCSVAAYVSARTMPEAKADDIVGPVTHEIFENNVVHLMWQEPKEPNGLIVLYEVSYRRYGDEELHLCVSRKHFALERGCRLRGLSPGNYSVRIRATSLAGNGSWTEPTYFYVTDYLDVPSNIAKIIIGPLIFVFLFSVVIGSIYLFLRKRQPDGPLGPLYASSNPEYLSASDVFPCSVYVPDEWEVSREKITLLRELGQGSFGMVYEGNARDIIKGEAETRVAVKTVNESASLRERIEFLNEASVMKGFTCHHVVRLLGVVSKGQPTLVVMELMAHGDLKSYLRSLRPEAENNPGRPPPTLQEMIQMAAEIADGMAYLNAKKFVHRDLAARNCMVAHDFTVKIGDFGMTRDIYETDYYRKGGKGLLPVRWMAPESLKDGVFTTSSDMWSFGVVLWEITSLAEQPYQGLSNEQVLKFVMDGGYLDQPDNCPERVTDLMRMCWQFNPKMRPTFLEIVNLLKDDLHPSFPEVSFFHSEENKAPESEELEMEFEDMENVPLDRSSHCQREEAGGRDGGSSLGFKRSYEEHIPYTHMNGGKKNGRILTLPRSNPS

Substance | Receptor binding (% of human insulin) (human insulin receptor) | k′rel [1]
N^εB29—[N—HOOC(CH2)14CO)—N-(carboxethyl)-CH2-ortho C6H4CO] desB30 human insulin [Example 7] | 11 % of human insulin | 0.905
N^εB29-ω-carboxypentadecanoyl-γ-L-glutamyl 4-aminomethyl-benzoyl) desB30 human insulin [Example 11] | 14 % of human insulin | 1.12
N^εB29-10-(4-carboxyphenylsulfanyl)decanoyl-γ-L-glutamyl desB30 human insulin [Example 23] | 101 % of human insulin | 0.475
N^εB29—[N—HOOC(CH2)14CO)—N-(carboxyethyl)-CH2-para-C6H4CO] desB30 human insulin [Example 1] | 18 % of human insulin | –
N^εB29-10-(4-Carboxyphenoxy)decanoyl beta-Asp desB30 insulin [Example 25] | 42 % of human insulin | 0.348
N^εB29-(3-Carboxy-5-hexadecandioylaminobenzoyl) des(B30)insulin [Example 9] | 12 % of human insulin | 1.7
N^εB29-4-{[(2-Carboxyethyl)-(15-carboxypentadecanoyl)amino]methyl}benzoyl)-γ-L-glutamyl desB30 human insulin [Example 20] | – | 0.399
N^εB29—N—(HOOC(CH2)16CO)—N(carboxyethyl)-CH2-para-C6H4CO] desB30 human insulin [Example 3] | 15 % of human insulin | 2.03
N^εB29-(3-Carboxy-5-octadecandioylaminobenzoyl) des(B30) human insulin [Example 10] | 19 % of human insulin | 2.97
N^εB29-11-(4-Carboxy-phenoxy) undecanoyl γ-L-glutamyl desB30 insulin [Example 26] | 55 % of human insulin | 0.482
N^εB29-[(5-{[(2-Carboxyethyl)-(15-carboxypentadecanoyl)amino]methyl}furan-2-carbonyl)desB30 human insulin [Example 5] | 13 % of human insulin | 1.19
N^εB29-(3-carboxy-4-hexdecandioylaminobenzoyl) desB30 human insulin [Example 22] | – | 1.075
N^εB29{3-[(3,5-Bis-carboxymethoxy-benzyl)-(15-carboxypentadecanoyl)amino]-propionyl desB30 human insulin [Example 16] | – | 0.45
N^εB29-(3-Carboxy-4-(14-carboxytetradecyloxy)benzoyl) desB30 human insulin [Example 12] | – | 1.51
N^εB29-{4-Carboxy-4-[10-(4-carboxy-phenoxy)-decanoylamino]-butyryl}desB30 human insulin [Example 14] | 46 % of human insulin | 0.388
N^εB29-[3-Carboxy-5-(octadecandioyl-N-carboxyethylglycin)aminobenzoyl] desB30 human insulin [Example 15] | – | 0.662
N^εB29-(3-Carboxy-5-(14-carboxytetradecyloxy)benzoyl) desB30 human insulin [Example 13] | – | 1.175
N^εB29-ω-carboxypentadecanoyl-(4-aminomethylbenzoyl)-γ-L-glutamyl desB30 human insulin [Example 18] | – | 1.18
N^εB29—[N—(HOOC(CH2)14CO)—N-(carboxyethyl)-para-C6H4CO] desB30 human insulin [Example 8] | 17 % of human insulin | 1.08
N^εB29-{4-[2-(4-carboxymethylphenyl)ethyl]phenyl}acetyl-γ-L-glutamyl desB30 human insulin [Example 21] | – | 0.291
N^εB29—N—(HOOC(CH2)15CO)—N-(carboxyethyl)-CH2-para-C6H4CO] desB30 human insulin [Example 4] | – | 1.23
N^εB29—[N—(HOOC(CH2)13CO)—N-(carboxyethyl)-CH2-para-C6H4CO] desB30 human insulin [Example 2] | 28 % of human insulin | 0.81
